According to patent US12123876B2, “Antibody binding to HEG1 and use of the antibody for detection and treatment of mesothelioma” (Kanagawa Prefectural Hospital Organization, priority 2016, dated 2024):

Key:
[1] = test system: HEG1 protein (purified from ACC-MESO4 or recombinant soluble HEG1); assay: Western blot / dot blot reactivity of antibodies with HEG1 protein; format: binding, human; conditions: Western blot, anti-human intelectin antibody-HRP as secondary antibody
Description: A massive amount of ACC-MESO4 was cultured, and purification of an antigen from the cell lysate was performed. Cells from 240 10-cm dishes were solubilized with 50 mM Tris buffer (pH 8.0) containing 1% TRITON™ X-100 (detergent), 1% CHAPS, 1 mM EDTA, 50 mM NaCl, and protease inhibitor (Complete, Roche Life Science), and then centrifuged. The resulting supernatant was dialyzed with 20 mM acetate buffer (pH 5.0) at 4° C. for 18 hours to afford an acidic precipitate. The precipitate was extracted with 20 mM Tris buffer (pH 7.2) containing 0.1% TWEEN® 20 (polyethylene glycol sorbitan monolaurate, polyoxyethylenesorbitan monolaurate) and 150 mM NaCl and centrifuged, and the resulting supernatant was concentrated by using an Amicon Ultra-15, 100 kDa (Merck Millipore) and subjected to solution exchange with 20 mM Tris buffer (pH 8.0) containing 6 M guanidine hydrochloride. To the concentrated solution, tris(2-carboxyethyl)phosphine hydrochloride with a final concentration of 10 mM was added, and the resultant was heated at 60° C. for 30 minutes, and iodoacetamide with a final concentration of 40 mM was then added thereto, and reacted at room temperature for 3 hours. The reaction solution was subjected to gel filtration chromatography (SUPEROSE® 6 INCREASE (prepacked column) 10/300 GL (GE Healthcare)) in 20 mM Tris buffer (pH 8.0) containing 6 M guanidine hydrochloride and 0.05% TWEEN® 20 (polyethylene glycol sorbitan monolaurate, polyoxyethylenesorbitan monolaurate), and fractions positive for dot blot were collected. The sample was dialyzed with 25 mM phosphate buffer (pH 7.0) containing 4 M urea and 0.05% TWEEN® 20 (polyethylene glycol sorbitan monolaurate, polyoxyethylenesorbitan monolaurate) at room temperature overnight, and applied to a Mono Q 5/50 GL (GE Healthcare). The column was washed with 25 mM phosphate buffer (pH 7.0) containing 4 M urea and 0.05% TWEEN® 20 (polyethylene glycol sorbitan monolaurate, polyoxyethylenesorbitan monolaurate), and thereafter elution was performed with an NaCl salt concentration gradient of 0 to 1 M. Fractions strongly positive for dot blot were collected, and dialyzed with 25 mM phosphate buffer (pH 7.2) containing 150 mM NaCl and 0.05% TWEEN® 20 (polyethylene glycol sorbitan monolaurate, polyoxyethylenesorbitan monolaurate) at room temperature overnight, and applied to 1 mL of WGA-SEPHAROSE® (wheat germ agglutinin-crosslinked, beaded-form of agarose) (J-OIL MILLS, Inc.). After washing with buffer, elution was performed with 25 mM phosphate buffer (pH 7.2) containing 0.2 M N-acetylglucosamine, 150 mM NaCl, and 0.05% TWEEN® 20 (polyethylene glycol sorbitan monolaurate, polyoxyethylenesorbitan monolaurate), and the eluent was concentrated with a Centricon (YM-30) (Millipore). Gel filtration chromatography (SUPEROSE® 6 INCREASE (prepacked column) 10/300 GL (GE Healthcare)) was performed in 25 mM phosphate buffer (pH 7.2) containing 3 M GdnHCI and 0.5% CHAPS, and fractions strongly positive for dot blot were dialyzed with 20 mM NH4HCO3 containing 0.5% CHAPS at room temperature overnight to afford a purified antigen.
The dot blot was performed as follows. A PVDF membrane (Immobilon-P, Merck Millipore) was soaked in methanol, and then washed and impregnated with pure water. The hydrophilized PVDF membrane was placed on a filter paper containing water to avoid air inclusion, removed of excessive moisture, and soaked with 1 to 5 μL of the sample in dots fed by a micropipette. After the membrane was dried at room temperature overnight, the membrane was hydrophilized again with methanol and pure water, and blocked with 20 mM Tris buffer (pH 7.4) containing 5% skim milk, 0.1% TWEEN® 20 (polyethylene glycol sorbitan monolaurate, polyoxyethylenesorbitan monolaurate), and 150 mM NaCl (blocking buffer) at room temperature for 1 hour. […]

SKM9-2 antibody = assay: Western blot reactivity of human HEG1 fragments expressed in ACC-MESO-1 with SKM9-2 antibody; format: binding, mouse; conditions: Western blot of cell lysate
Description: In this Example, the mesothelioma cell line ACC-MESO-1 was allowed to express a human HEG1 fragment with the endogenous HEG1 of ACC-MESO-1 knocked down, and the reactivity with the SKM9-2 antibody was examined. Subsequently, the reactivity with the antibody was tested for the epitope region through alanine scanning, and key amino acids for binding to the antibody were determined.
Gene transfer was performed with HEG1 siRNA (H9106) (SEQ ID NOs: 40, 41) and human HEG1 for the mesothelioma cell line ACC-MESO-1, and the reactivity of the SKM9-2 was examined through Western blot analysis. A full length protein (HEG1 full length) or a fragment (HEG1 3 kb, HEG1 2 kb, or HEG1 1 kb) of the human HEG1 was used. The full length human HEG1 protein, a protein having the amino acid sequence set forth in SEQ ID NO: 35, was obtained through inserting a base sequence set forth in SEQ ID NO: 34 into pFLAG-CMV1 (Sigma-Aldrich Japan K.K.) to obtain a plasmid, transforming the plasmid, and allowing the mesothelioma cell line to express the plasmid. Fragment HEG1 3 kb was obtained through inserting a fragment corresponding to a sequence from position 285, leucine, to position 1387, phenylalanine, of SEQ ID NO: 35 into pFLAG-CMV1 (Sigma-Aldrich Japan K.K.) in an in-frame manner, and allowing the mesothelioma cell line to express the resultant. HEG1 2 kb and HEG1 1 kb were obtained through allowing the mesothelioma cell line to express products similarly obtained from a fragment corresponding to a sequence from position 677, leucine, to position 1387, phenylalanine, of SEQ ID NO: 35 and a fragment corresponding to a sequence from position 992, valine, to position 1387, phenylalanine, of SEQ ID NO: 35, respectively. Each cell lysate was analyzed through Western blot with the SKM9-2 antibody.
Further, the region in exon 7 of HEG1 was analyzed in detail. The amino acid sequence of a part of exon 7 of HEG1 was connected to the N-terminal side of a protein obtained by connecting a GPI anchor signal to human SLURP1 (SEQ ID NO: 42; hereinafter referred to as “SLURPgpi”) to produce a fusion protein, and the reactivity of the SKM9-2 was examined through Western blot analysis with the fusion protein. A signal sequence (SEQ ID NO: 43) was added to the N-terminal of the fusion protein before expression.
Used fusion proteins of a partial sequence of exon 7 of HEG1 and SLURPgpi were as follows: • a fragment obtained by bonding a fragment from amino acid No. 783, aspartic acid, to amino acid No. 991, serine, to SLURPgpi (7.6); • a fragment obtained by bonding a fragment from amino acid No. 832, glutamine, to amino acid No. 991, serine, to SLURPgpi (7.7); • a fragment obtained by bonding a fragment from amino acid No. 886, glutamine, to amino acid No. 991, serine, to SLURPgpi (7.8); • a fragment obtained by bonding a fragment from amino acid No. 941, alanine, to amino acid No. 991, serine, to SLURPgpi (7.9); • a fragment obtained by bonding SEQ ID NO: 44 to SLURPgpi (7.61); • a fragment obtained by bonding SEQ ID NO: 45 to SLURPgpi (7.62); • a fragment obtained by bonding SEQ ID NO: 46 to SLURPgpi (7.63); • a fragment obtained by bonding SEQ ID NO: 47 to SLURPgpi (7.64); • a fragment obtained by bonding SEQ ID NO: 48 to SLURPgpi (7.623); • a fragment obtained by bonding SEQ ID NO: 49 to SLURPgpi (7.6231); • a fragment obtained by bonding SEQ ID NO: 50 to SLURPgpi (7.6232); • a fragment obtained by bonding SEQ ID NO: 51 to SLURPgpi (7.6241); and • a fragment obtained by bonding SEQ ID NO: 52 to SLURPgpi (7.6242).

Row | Molecule | Recognition of glycosylated HEG1 protein [1] | Recognition of glycosylated HEG1 protein ([1]; listed as protein complex including VH regions and CH1 regions of SKM9-2 antibody fused to) | Binding to SKM9-2 antibody (positive/negative) (SKM9-2 antibody) | Binding to SKM9-2 antibody (positive/negative) (SKM9-2 antibody; listed as fragment 7.623) | Binding to SKM9-2 antibody (positive/negative) (SKM9-2 antibody; listed as fragment 7.62)
1 | intelectin-fused antibody: VH and CH1 of SKM9-2 H chain fused to human intelectin positions 19-313, co-expressed with SKM9-2 L chains (protein) QVQLQQPGAELVRPGASVKLSCKASGFSFTTYWITWVKQRPGQGLEWIGMIHPSDSETRLSQTFKDKATLTVDKSSNTAYMQFSSPTSEDSAVYYCVRDFDVWGAGTTVTVSSAKTTPPSVYPLAPGSAAQTNSMVTLGCLVKGYFPEPVTVTWNSGSLSSGVHTFPAVLQSDLYTLSSSVTVPSSTWPSETVTCNVAHPASSTKVDKKIVPRDCGTDEANTYFKEWTCSSSPSLPRSCKEIKDECPSAFDGLYFLRTENGVIYQTFCDMTSGGGGWTLVASVHENDMRGKCTVGDRWSSQQGSKADYPEGDGNWANYNTFGSAEAATSDDYKNPGYYDIQAKDLGIWHVPNKSPMQHWRNSALLRYRTDTGFLQTLGHNLFGIYQKYPVKYGEGKCWTDNGPVIPVVYDFGDAQKTASYYSPYGQREFTAGFVQFRVFNNERAANALCAGMRVTGCNTEHHCIGGGGYFPEASPQQCGDFSGFDWSGYGTHVGYSSSREITEAAVLLFYR light: DVLMTQTPLSLPVSLGDQASISCRSSQNIVHNNGNTYLGWYLQKPGQSPKLLIFKVSNRFSGVPDRFSGSGSGTDFTLKISRVEAEDLGVYYCFQGSHIPRTFGGGTRLEIKRADAAPTVSIFPPSSEQLTSGGASVVCFLNNFYPKDINVKWKIDGSERQNGVLNSWTDQDSKDSTYSMSSTLTLTKDEYERHNSYTCEATHKTSTSPIVKSFNRNEC | recognized the glycosylated HEG1 protein | allows detection of HEG1 protein | – | – | –
2 | 7.623: SEQ ID NO: 48 (SKSPSLVSLPTEST) bonded to SLURPgpi (protein) SKSPSLVSLPTESTGSLKCYTCKEPMTSASCRTITRCKPEDTACMTTLVTVEAEYPFNQSPVVTRSCSSSCVATDPDSIGAAHLIFCCFRDLCNSELSRDGAPSLGSPGGLLLALALFLLLGVLL | – | – | positive | positive signal | –
3 | 7.62: SEQ ID NO: 45 (EKVITESKSPSLVSLPTEST) bonded to SLURPgpi (protein) EKVITESKSPSLVSLPTESTGSLKCYTCKEPMTSASCRTITRCKPEDTACMTTLVTVEAEYPFNQSPVVTRSCSSSCVATDPDSIGAAHLIFCCFRDLCNSELSRDGAPSLGSPGGLLLALALFLLLGVLL | – | – | positive | – | positive signal
